B1: afucosylated BB7.2 IgG1 (HLA-A2-specific chimeric mAb) (antibody)
heavy: not shown
light: DVLMTQTPLSLPVSLGDQVSISCRSSQSIVHSNGNTYLEWYLQKPGQSPKLLIYKVSNRFSGVPDRFSGSGSGTDFTLKISRVEAEDLGVYYCFQGSHVPRTFGGGTKLEIKRADAAPTVSIFPPSSEQLTSGGASVVCFLNNFYPKDINVKWKIDGSERQNGVLNSWTDQDSKDSTYSMSSTLTLTKDEYERHNSYTCEATHKTSTSPIVKSFNRNEC
notes: also called afucosylated IgG1; afucosylated HLA-A2 mAb
B2: BB7.2 IgG1 (HLA-A2-specific chimeric mAb, unmodified / fucosylated) (antibody)
heavy: not shown
light: B1 light
notes: also called HLA-A2 IgG1 mAb; unmodified HLA-A2 mAb
B3: BB7.2 IgG3 (HLA-A2-specific chimeric mAb, unmodified / fucosylated) (antibody)
heavy: QVQLQQSGPELVKPGASVKMSCKASGYTFTSYHIQWVKQRPGQGLEWIGWIYPGDGSTQYNEKFKGKTTLTADKSSSTAYMLLSSLTSEDSAIYFCAREGTYYAMDYWGQGTSVTVSSAKTTPPSVYPLAPGCGDTTGSSVTLGCLVKGYFPESVTVTWNSGSLSSSVHTFPALLQSGLYTMSSSVTVPSSTWPSQTVTCSVAHPASSTTVDKKLELKTPLGDTTHTCPRCPEPKSCDTPPPCPRCPEPKSCDTPPPCPRCPEPKSCDTPPPCPRCPAPELLGGPSVFLFPPKPKDTLMISRTPEVTCVVVDVSHEDPEVQFKWYVDGVEVHNAKTKPREEQYNSTFRVVSVLTVLHQDWLNGKEYKCKVSNKALPAPIEKTISKTKGQPREPQVYTLPPSREEMTKNQVSLTCLVKGFYPSDIAVEWESSGQPENNYNTTPPMLDSDGSFFLYSKLTVDKSRWQQGNIFSCSVMHEALHNRFTQKSLSLSPGK
light: B1 light
notes: also called HLA-A2 IgG3 mAb; unmodified HLA-A2 mAb
B4: afucosylated BB7.2 IgG3 (HLA-A2-specific chimeric mAb) (antibody)
heavy: B3 heavy
light: B1 light
notes: also called afucosylated IgG3; afucosylated HLA-A2 mAb

What was measured:
FcγRI = molecular target: T1, FcγRI (human, UniProt P12314 16-288); assay: BLI (Octet), mAb on HLA-A2 antigen tips, 292 nM FcγRI in solution
T1 construct: also called human FcγRI
Protocol: High Precision Streptavidin 2.0 (SAX2) biosensor tips (Sartorius) were used to determine the kinetics of HLA-A2-specific IgG binding to human FcγRIIIa and FcγRI by biolayer interferometry (BLI) on an Octet (Forte Bio) instrument. Streptavidin (SA) biosensor tips were first loaded with HLA-A2 antigen, followed by HLA-A2 antibody, and finally dipped into FcγR to study the antibody-receptor kinetics. Biosensors were equilibrated with 0.05% Tween-PBS for 60 s, loaded with 0.25 μg/mL biotinylated HLA-A2 antigen (in 0.05% Tween-PBS) until they reached the threshold of 1 nm, and then dipped into 0.05% Tween-PBS to reach baseline for 60 s. […] To improve signal to noise, serum IgG was purified using Melon gel (Thermo) according to the manufacturer's instructions. Polyclonal serum IgG was loaded for 2,400 s. For FcγR dissociation rate (kd) determination, two SAX2 biosensor tips were used, one for the measurement and one as a reference to subtract background signal changes due to dissociation of other components, such as dissociation of HLA-A2-specific IgG from biotinylated HLA. Reference biosensors loaded with IgGs were dipped into buffer (0.05% Tween-PBS) instead of receptors. Finally, the sensors were dipped into 0.05% Tween-PBS for 180 s and 300 s for the dissociation of FcγRIIIa and FcγRI, respectively.

[1] = molecular target: T2, FcγRIIIa V158 (recombinantly expressed, monomeric) (human, UniProt P08637 17-208); assay: BLI (Octet), mAb on HLA-A2 antigen tips, monomeric FcγRIIIa V158; dissociation rate printed as 'KD'; the value is the MEAN over afucosylated IgG1 and IgG3
T2 construct: also called biotinylated FcγRIIIa V158 tetramers
Description: (§1) Antibody-Receptor dissociation kinetics measurement by Biolayer Interferometry (BLI). […] Streptavidin tips were first coated with biotinylated HLA-A2 antigens. After establishing a signal baseline, the tips were loaded with HLA-A2-specific antibodies, dipped into the buffer for baseline, and then finally dipped into a solution of recombinantly expressed FcγRIIIa V158 monomers. Following receptor association, tips were dipped into a buffer, which allowed receptor dissociation. The dissociation rate of FcγR was defined relatively to a reference tip which was not dipped into the receptor.
(§2) High Precision Streptavidin 2.0 (SAX2) biosensor tips (Sartorius) were used to determine the kinetics of HLA-A2-specific IgG binding to human FcγRIIIa and FcγRI by biolayer interferometry (BLI) on an Octet (Forte Bio) instrument. Streptavidin (SA) biosensor tips were first loaded with HLA-A2 antigen, followed by HLA-A2 antibody, and finally dipped into FcγR to study the antibody-receptor kinetics. Biosensors were equilibrated with 0.05% Tween-PBS for 60 s, loaded with 0.25 μg/mL biotinylated HLA-A2 antigen (in 0.05% Tween-PBS) until they reached the threshold of 1 nm, and then dipped into 0.05% Tween-PBS to reach baseline for 60 s. […]

[2] = molecular target: T2, FcγRIIIa V158 (recombinantly expressed, …); assay: BLI (Octet), mAb on HLA-A2 antigen tips, monomeric FcγRIIIa V158; dissociation rate printed as 'KD'; the value is the MEAN over unmodified IgG1 and IgG3
Description: as §1, §2

T2 sequence (P08637 17-208 F176V limits assumed): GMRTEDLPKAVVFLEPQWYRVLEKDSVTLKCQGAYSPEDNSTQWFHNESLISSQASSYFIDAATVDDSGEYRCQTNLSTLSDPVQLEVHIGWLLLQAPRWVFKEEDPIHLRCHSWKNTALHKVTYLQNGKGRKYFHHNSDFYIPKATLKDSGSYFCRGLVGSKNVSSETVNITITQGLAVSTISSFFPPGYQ
T1 sequence (P12314 16-288 limits assumed): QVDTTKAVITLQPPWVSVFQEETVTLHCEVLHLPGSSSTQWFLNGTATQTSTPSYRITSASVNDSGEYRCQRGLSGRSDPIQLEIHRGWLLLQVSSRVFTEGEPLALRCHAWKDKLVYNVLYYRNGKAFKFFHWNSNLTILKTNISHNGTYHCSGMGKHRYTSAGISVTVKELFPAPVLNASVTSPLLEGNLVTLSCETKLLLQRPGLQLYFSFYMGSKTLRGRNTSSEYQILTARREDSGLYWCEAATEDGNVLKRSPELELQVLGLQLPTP

Row | Binder | binding result (FcγRI) | koff [1] [s⁻¹] | koff [2] [s⁻¹]
1 | B1 | binds | 0.021 | –
2 | B2 | binds | – | 0.46
3 | B3 | binds | – | 0.46
4 | B4 | binds | 0.021 | –

Source: patent US20250172568A1 (TRUSTEES OF DARTMOUTH COLLEGE, published 2025)
